Measured values published in article PMC12922802 (Cell, 2025).

B1: SRSF3 (natural protein, human, UniProt P84103 1-164, looked up)
chain: MHRDSCPLDCKVYVGNLGNNGNKTELERAFGYYGPLRSVWVARNPPGFAFVEFEDPRDAADAVRELDGRTLCGCRVRVELSNGEKRSRNRGPPPSWGRRPRDDYRRRSPPPRRRSPRRRSFSRSRSRSLSRDRRRERSLSRERNHKPSRSFSRSRSRSRSNERK
B2: SRSF5 (natural protein, human, UniProt Q13243 1-272, looked up)
chain: MSGCRVFIGRLNPAAREKDVERFFKGYGRIRDIDLKRGFGFVEFEDPRDADDAVYELDGKELCSERVTIEHARARSRGGRGRGRYSDRFSSRRPRNDRRNAPPVRTENRLIVENLSSRVSWQDLKDFMRQAGEVTFADAHRPKLNEGVVEFASYGDLKNAIEKLSGKEINGRKIKLIEGSKRHSRSRSRSRSRTRSSSRSRSRSRSRSRKSYSRSRSRSRSRSRSKSRSVSRSPVPEKSQKRGSSSRSKSPASVDRQRSRSRSRSRSVDSGN
B3: SRSF7 (natural protein, human, UniProt Q16629 1-238, looked up)
chain: MSRYGRYGGETKVYVGNLGTGAGKGELERAFSYYGPLRTVWIARNPPGFAFVEFEDPRDAEDAVRGLDGKVICGSRVRVELSTGMPRRSRFDRPPARRPFDPNDRCYECGEKGHYAYDCHRYSRRRRSRSRSRSHSRSRGRRYSRSRSRSRGRRSRSASPRRSRSISLRRSRSASLRRSRSGSIKGSRYFQSPSRSRSRSRSISRPRSSRSKSRSPSPKRSRSPSGSPRRSASPERMD

Columns and labels:
SRSF1ΔIDR2 = experiment: right-angle light scattering
[1] = target: the molecule itself
[2] = target: the molecule itself; experiment: right-angle light scattering

Molecule	threshold concentration for microphase separation (cμ) (SRSF1ΔIDR2) [µM]	stoichiometry N [1] [molecules per microphase]	threshold concentration for microphase separation (cμ) [2] [µM]
SRSF1ΔIDR2 (domain or fragment)	0.44	–	–
B1	–	~93	2 ± 0.14
B2	–	~14	9.5 ± 0.71
B3	–	~8	1 ± 0.14
